Patent CN112010969A (UNIV NANCHANG, dated 2020)

Molecular target: T1, 增强绿色荧光蛋白 (enhanced green fluorescent protein, EGFP) (Aequorea victoria (engineered mutant), UniProt P42212 1-238 = GFP, limits assumed)
T1 construct: also called EGFP蛋白
Experiment: biolayer interferometry: nanobody coupled by EDC/s-NHS to AR2G probe, association 300 s, dissociation 120 s in PBS

B1: 高亲和力增强绿色荧光蛋白纳米抗体 (anti-EGFP nanobody), clone 4-28 (VHH)
VHH: QVQLVESGGGLVQPGGSLRLSCAASGSRFSIHTMGWYRQAPGKQRELVATITWGGRQNYADSVKGRFTINRDNDKNTVDLQMDSLKPEDTAVYYCNVRPISNGPDYWGQGTQVTVSS
notes: Alpaca VHH selected by phage display; The purified protein was about 20 kD by SDS-PAGE; also called 抗EGFP纳米抗体; 编号4-28; not shown: Expressed from PET25b in E. coli Rosetta and purified on a nickel column
- Kd: 0.0967 nM
